Where a chain is given by its changes, count along the chain named. One block for each binder: values may come before it.
Tests used:
human KLK5 [1] = molecular target: T1, human KLK5 (human, UniProt Q9Y337 67-293); test: SPR, BIAcore T200; biotinylated KLK5 captured on chip, peptide as analyte; single cycle kinetics, 1:1 model
T1 construct: also called hKLK5; active KLK5; not shown: C-terminal tag with His tag, encoded by primers 3/4
T1 sequence: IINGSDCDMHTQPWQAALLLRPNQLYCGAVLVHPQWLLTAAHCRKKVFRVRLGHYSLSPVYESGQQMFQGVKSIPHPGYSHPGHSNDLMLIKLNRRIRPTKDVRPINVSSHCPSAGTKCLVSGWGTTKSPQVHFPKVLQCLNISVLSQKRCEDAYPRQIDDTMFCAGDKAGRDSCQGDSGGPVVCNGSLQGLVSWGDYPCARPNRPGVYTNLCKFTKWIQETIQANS
Procedure: In order to measure the binding affinity of the KLK5 inhibitory peptides, surface plasmon resonance analysis was conducted using BIAcore T 200 (GE healthcare). A complementary strand of DNA of a streptavidin conjugate was captured by hybridization on Sensor Chip CAP (GE healthcare) on which single-stranded DNA immobilized. Next, KLK5 biotinylated using EZ-Link NHS-PEG4-Biotin (Thermo Fisher Scientific) was captured at a flow rate of 10 μL/min to immobilize about 10 RU. Thereafter, the KLK5 inhibitory peptide, serially diluted 2-fold with HBS-EP (0.625 to 10 nM), was added thereto as an analyte at a flow rate of 30 μL/min. In the BIAcore T 200 Evaluation software (version 2.0), kon and koff were calculated by analysis using Single cycle kinetics in a simple one-to-one Langmuir binding model. The dissociation constant KD was calculated as a ratio of koff/kₒₙ. Further, multiple KLK5 inhibitory peptides were measured by regenerating Sensor Chip CAP using a Regeneration buffer attached to a Biotin CAPture Kit (GE healthcare) and repeatedly capturing biotinylated KLK5.

KLK4 = molecular target: T2, KLK4 (human, UniProt Q9Y5K2); test: fluorogenic peptide substrate cleavage, 1 µM inhibitor
T2 construct: commercial enzyme (R&D Systems, 1719-SE); 1 µg/mL in the assay; substrate Boc-Val-Pro-Arg-AMC 100 µM; also called Human KLK4; hKLK4
Procedure: FIG. 3F includes graphs to evaluate the cross-reactivity of each inhibitory peptide with proteases, using the degradation of a peptide substrate as an index. For evaluating the Human KLK1 inhibitory activity, hKLK1 (R&D Systems, Inc., 2337-SE) with a final concentration of 0.1 μg/mL and a substrate peptide Pro-Phe-Arg-MCA (PEPTIDE […], INC., 3096-v) with a final concentration of 100 μM were used. For evaluating the Human KLK2 inhibitory activity, hKLK2 (R&D Systems, Inc., 4104-SE) with a final concentration of 2 μg/mL and a substrate peptide Pro-Phe-Arg-MCA (PEPTIDE […], INC., 3096-v) with a final concentration of 100 μM were used. For evaluating the Human KLK4 inhibitory activity, hKLK4 (R&D Systems, Inc., 1719-SE) with a final concentration of 1 μg/mL and a substrate peptide Boc-Val-Pro-Arg-AMC (R&D Systems, Inc., ES011) with a final concentration of 100 μM were used.
(§1) The specificities for other proteases were evaluated using the degradation of a substrate peptide as an index. As in the method described in (3-1), 25 μL each of a protease and a sample diluted with an assay buffer were mixed (to a final concentration of sample of 1 μM), followed by a reaction at 37° C. for 20 minutes. Thereafter, 50 μL of a substrate diluted with an assay buffer was added thereto, and the fluorescence signal was measured using Enspire (PerkinElmer). An assay buffer (50 mM Tris, 150 mM NaCl, pH 8.0) was used for the evaluation of the protease activity, and a PROTEOSAVE® SS96F black plate (Sumitomo Bakelite Co., Ltd.) was used for the reaction and the measurement. The combinations of the protease and the substrate used for the evaluation of the specificity were as follows.

KLK8 = molecular target: T3, KLK8 (human, UniProt O60259); test: as above
T3 construct: prepared by the inventors; 5 nM in the assay; substrate Boc-Val-Pro-Arg-AMC 100 µM; also called Human KLK8; hKLK8
T3 sequence (protease, looked up): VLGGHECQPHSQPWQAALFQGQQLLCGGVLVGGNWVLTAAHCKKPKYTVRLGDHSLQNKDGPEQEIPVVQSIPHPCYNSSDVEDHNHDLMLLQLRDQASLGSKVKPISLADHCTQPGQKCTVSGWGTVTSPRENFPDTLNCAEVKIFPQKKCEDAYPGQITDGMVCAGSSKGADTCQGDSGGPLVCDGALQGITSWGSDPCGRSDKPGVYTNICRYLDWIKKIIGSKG
Procedure: FIG. 3G includes graphs to evaluate the cross-reactivity of each inhibitory peptide with proteases, using the degradation of a peptide substrate as an index. For evaluating the Human KLK7 inhibitory activity, hKLK7 with a final concentration of 1 μg/mL and a substrate peptide Mca-Arg-Pro-Lys-Pro-Val-Glu-Nval-Trp-Arg-Lys (Dnp)-NH₂ (R&D Systems, Inc., ES002) with a final concentration of 20 μM were used. For evaluating the Human KLK8 inhibitory activity, hKLK8 (UniProt: 060259, prepared by the inventors) with a final concentration of 5 nM and a substrate peptide Boc-Val-Pro-Arg-AMC (R&D Systems, Inc., ES011) with a final concentration of 100 μM were used. For evaluating the Human KLK12 inhibitory activity, hKLK12 (R&D Systems, Inc., 3095-SE) with a final concentration of 0.1 μg/mL and a substrate peptide Boc-Val-Pro-Arg-AMC (R&D Systems, Inc., ES011) with a final concentration of 100 μM were used.
as §1

human KLK5 [2] = molecular target: T1, human KLK5; test: cell-based or functional assay
human KLK14 = molecular target: T4, human KLK14 (human, UniProt Q9P0G3 25-251); test: cell-based or functional assay
T4 sequence: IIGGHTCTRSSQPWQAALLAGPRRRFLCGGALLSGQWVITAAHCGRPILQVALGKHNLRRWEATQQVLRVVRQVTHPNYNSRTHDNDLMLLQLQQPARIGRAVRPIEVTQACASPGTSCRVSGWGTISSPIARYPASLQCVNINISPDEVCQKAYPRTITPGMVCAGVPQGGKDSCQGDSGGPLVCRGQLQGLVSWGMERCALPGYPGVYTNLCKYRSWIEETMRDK

mouse KLK14 = molecular target: T5, mouse KLK14 (mouse, UniProt Q8CGR5 24-250); test: cell-based or functional assay
T5 sequence: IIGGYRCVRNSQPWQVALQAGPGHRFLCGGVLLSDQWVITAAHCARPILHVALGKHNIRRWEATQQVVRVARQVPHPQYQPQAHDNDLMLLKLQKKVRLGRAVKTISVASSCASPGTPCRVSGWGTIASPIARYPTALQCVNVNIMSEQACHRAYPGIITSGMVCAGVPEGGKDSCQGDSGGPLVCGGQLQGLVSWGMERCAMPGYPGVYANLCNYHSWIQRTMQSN

mouse KLK5 = molecular target: T6, mouse KLK5 (mouse); test: cell-based or functional assay
T6 chain: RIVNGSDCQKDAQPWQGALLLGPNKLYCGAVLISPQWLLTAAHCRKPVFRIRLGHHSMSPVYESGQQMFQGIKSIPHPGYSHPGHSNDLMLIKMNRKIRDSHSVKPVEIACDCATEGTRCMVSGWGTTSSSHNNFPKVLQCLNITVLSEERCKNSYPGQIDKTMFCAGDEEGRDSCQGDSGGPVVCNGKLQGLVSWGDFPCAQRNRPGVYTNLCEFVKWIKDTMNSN

mouse KLK7 = mouse KLK7 (mouse, UniProt Q91VE3 26-249); test: cell-based or functional assay
bChymotrypsin = test: fluorogenic peptide substrate cleavage, 1 µM inhibitor
Procedure: FIG. 3A includes graphs to evaluate the cross-reactivity of each inhibitory peptide with proteases, using the degradation of a peptide substrate as an index. For evaluating the Bovine trypsin inhibitory activity, trypsin (Pierce, 20233) with a final concentration of 5 nM and a substrate peptide Boc-Val-Pro-Arg-AMC (R&D Systems, Inc., ES011) with a final concentration of 100 μM were used. For evaluating the Human trypsin inhibitory activity, trypsin (Sigma-Aldrich Co. LLC, T6424) with a final concentration of 1 nM and a substrate peptide Boc-Val-Pro-Arg-AMC (R&D Systems, Inc., ES011) with a final concentration of 100 μM were used. For evaluating the Bovine α-chymotrypsin inhibitory activity, chymotrypsin (Worthington Biochemical Corporation, LS001434) with a final concentration of 10 nM and a substrate peptide Suc-Leu-Leu-Val-Tyr-MCA (PEPTIDE […], INC., 3120-v) with a final concentration of 100 μM were used.
as §1

human KLK7 = human KLK7 (human, UniProt P49862 30-253); test: cell-based or functional assay
Plasmin = molecular target: T7, Plasmin (human, UniProt P00747); test: fluorogenic peptide substrate cleavage, 1 µM inhibitor
T7 construct: commercial enzyme (Sigma-Aldrich, P1867); 50 nM in the assay; substrate Boc-Val-Leu-Lys-MCA 100 µM; also called Human plasmin
Procedure: FIG. 3C includes graphs to evaluate the cross-reactivity of each inhibitory peptide with proteases, using the degradation of a peptide substrate as an index. For evaluating the Human plasmin inhibitory activity, plasmin (Sigma-Aldrich Co. LLC, P1867) with a final concentration of 50 nM and a substrate peptide Boc-Val-Leu-Lys-MCA (PEPTIDE […], INC., 3104-v) with a final concentration of 100 μM were used. For evaluating the Human thrombin inhibitory activity, thrombin (Sigma-Aldrich Co. LLC, T6884) with a final concentration of 1 nM and a substrate peptide Boc-Val-Pro-Arg-AMC (R&D Systems, Inc., ES011) with a final concentration of 100 μM were used. For evaluating the Human neutrophil elastase inhibitory activity, neutrophil elastase (Enzo Life Sciences, BML-SE284) with a final concentration of 0.00001 U/μL and a substrate peptide Suc (OMe)-Ala-Ala-Pro-Val-MCA (PEPTIDE […], INC., 3153-v) with a final concentration of 100 μM were used.
The specificities for other proteases were evaluated using the degradation of a substrate peptide as an index. […] Thereafter, 50 μL of a substrate diluted with an assay buffer was added thereto, and the fluorescence signal was measured using Enspire (PerkinElmer). […]

Chain of mouse KLK7 (Q91VE3 26-249): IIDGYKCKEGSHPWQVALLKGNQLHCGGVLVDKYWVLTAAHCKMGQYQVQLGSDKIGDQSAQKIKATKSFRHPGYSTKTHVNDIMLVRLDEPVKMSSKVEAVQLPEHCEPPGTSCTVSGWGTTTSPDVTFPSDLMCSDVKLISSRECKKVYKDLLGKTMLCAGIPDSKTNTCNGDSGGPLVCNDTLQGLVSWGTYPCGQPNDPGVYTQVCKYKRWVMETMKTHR
T2 sequence (Q9Y5K2 31-254 limits assumed): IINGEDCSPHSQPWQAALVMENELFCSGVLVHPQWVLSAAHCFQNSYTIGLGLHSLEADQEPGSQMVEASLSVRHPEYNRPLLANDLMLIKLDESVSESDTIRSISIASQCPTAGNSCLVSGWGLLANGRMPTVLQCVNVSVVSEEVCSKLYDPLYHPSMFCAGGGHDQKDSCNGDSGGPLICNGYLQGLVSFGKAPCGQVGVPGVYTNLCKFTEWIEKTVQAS
Chain of human KLK7 (P49862 30-253): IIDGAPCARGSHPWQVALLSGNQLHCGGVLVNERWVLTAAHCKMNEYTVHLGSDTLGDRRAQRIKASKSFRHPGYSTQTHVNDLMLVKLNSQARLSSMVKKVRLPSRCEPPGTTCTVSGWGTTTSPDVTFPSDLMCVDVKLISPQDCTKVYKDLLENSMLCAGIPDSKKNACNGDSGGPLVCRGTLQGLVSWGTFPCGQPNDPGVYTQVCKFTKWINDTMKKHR
T7 sequence (P00747 97-810 limits assumed): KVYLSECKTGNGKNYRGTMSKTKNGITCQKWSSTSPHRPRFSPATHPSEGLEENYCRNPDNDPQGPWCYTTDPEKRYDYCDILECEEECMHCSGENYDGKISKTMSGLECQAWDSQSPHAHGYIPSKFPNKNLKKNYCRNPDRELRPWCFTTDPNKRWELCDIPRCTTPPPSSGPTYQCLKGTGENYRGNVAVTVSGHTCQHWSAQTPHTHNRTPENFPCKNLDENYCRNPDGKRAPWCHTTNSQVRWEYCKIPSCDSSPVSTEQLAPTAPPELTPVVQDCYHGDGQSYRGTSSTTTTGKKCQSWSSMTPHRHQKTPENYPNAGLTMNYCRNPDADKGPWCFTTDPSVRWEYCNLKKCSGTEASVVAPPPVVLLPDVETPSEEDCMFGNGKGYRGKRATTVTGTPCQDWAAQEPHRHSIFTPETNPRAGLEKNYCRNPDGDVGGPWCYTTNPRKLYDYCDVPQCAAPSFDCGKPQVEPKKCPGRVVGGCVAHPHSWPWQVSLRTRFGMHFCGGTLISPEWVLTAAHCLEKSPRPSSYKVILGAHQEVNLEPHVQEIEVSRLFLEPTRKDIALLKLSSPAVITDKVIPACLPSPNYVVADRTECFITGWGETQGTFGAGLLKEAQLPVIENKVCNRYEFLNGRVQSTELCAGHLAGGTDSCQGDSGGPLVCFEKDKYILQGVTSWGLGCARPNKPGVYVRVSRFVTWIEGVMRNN

Kd (human KLK5 [1]): 0.0025 nM | koff (human KLK5 [1]): 2.9e-06 s⁻¹ | kon (human KLK5 [1]): 1.2e+06 M⁻¹ s⁻¹ | binding result (KLK4): binds | binding result (KLK8): binds | IC50(nM) for hKLK5 (human KLK5 [2]): 7.5 nM | IC50(nM) for hKLK14 (human KLK14): 499 nM | IC50(nM) for mKLK14 (mouse KLK14): > 1000 nM | IC50(nM) for mKLK5 (mouse KLK5): 10 nM | IC50(nM) for mKLK7 (mouse KLK7): > 1000 nM
B1: KLK5 inhibitory peptide K50062 (peptide)
chain: GPQFGLFSKYRTPNCQQYRELGCGRQYDPVCGSDMSTYANECTLCMKIREGGHNIKIIRNGPCGG
notes: SPINK2 mutant peptide made in E. coli

Kd (human KLK5 [1]): 0.061 nM | koff (human KLK5 [1]): 5e-05 s⁻¹ | kon (human KLK5 [1]): 820000 M⁻¹ s⁻¹ | binding result (bChymotrypsin): binds | IC50(nM) for hKLK7 (human KLK7): 13 nM | IC50(nM) for hKLK5 (human KLK5 [2]): 5.4 nM | IC50(nM) for hKLK14 (human KLK14): > 1000 nM | IC50(nM) for mKLK14 (mouse KLK14): 244 nM | IC50(nM) for mKLK5 (mouse KLK5): 40 nM | IC50(nM) for mKLK7 (mouse KLK7): 4 nM
B2: KLK5/KLK7 inhibitory peptide K50031 (peptide)
chain: B1 chain with Q16G, Q17E, R19K, E20G, L21R, G24Y, R25Y, Q26H
notes: as for B1

Kd (human KLK5 [1]): 0.26 nM | koff (human KLK5 [1]): 0.0015 s⁻¹ | kon (human KLK5 [1]): 6e+06 M⁻¹ s⁻¹ | binding result (bChymotrypsin): binds | IC50(nM) for hKLK7 (human KLK7): 24 nM | IC50(nM) for hKLK5 (human KLK5 [2]): 12 nM | IC50(nM) for hKLK14 (human KLK14): > 1000 nM | IC50(nM) for mKLK14 (mouse KLK14): 437 nM | IC50(nM) for mKLK5 (mouse KLK5): 149 nM | IC50(nM) for mKLK7 (mouse KLK7): 27 nM
B3: KLK5/KLK7 inhibitory peptide K51057 (peptide)
chain: GPQFGLFSKYRTPNCGTMQGSGCTYHYEPVCGSDMSTYANECTLCMKIREGGHNIKIIRNGPCGG
notes: as for B1

Kd (human KLK5 [1]): 0.068 nM | koff (human KLK5 [1]): 3.5e-05 s⁻¹ | kon (human KLK5 [1]): 520000 M⁻¹ s⁻¹ | binding result (Plasmin): binds | binding result (KLK4): binds | IC50(nM) for hKLK5 (human KLK5 [2]): 6.4 nM | IC50(nM) for mKLK14 (mouse KLK14): > 1000 nM | IC50(nM) for mKLK5 (mouse KLK5): 54 nM | IC50(nM) for mKLK7 (mouse KLK7): > 1000 nM
B4: KLK5 inhibitory peptide K51034 (peptide)
chain: B3 chain with T17R, M18Y, Q19T, G20T, S21G, T24N, Y25K, H26E
notes: as for B1

From patent publication US20210032313A1 (Daiichi Sankyo, published 2021)
